B1: TRIM15 (parent)
chain: LLARLRELEQQIWKERDEYITKVS
B2: TRIM39 (parent)
chain: YPCVLATEGFTSGRHYWEVEVGDK

Variants of: B1
Test: protein stability index of a GFP-peptide fusion (GPS, HEK-293T) (PSI 1-6); higher = more stable
Settings: c terminus: a fixed tail appended
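Further: lentivirally expressed fusions sorted by FACS into six bins by GFP to DsRed ratio, PSI derived from sequencing read proportions per bin multiplied by bin number.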

Protein stability index, by site and new letter:
R16: Y 2.13
A3: T 2.2, C 2.64, G 1.44, V 2.49
R6: C 1.8, S 2.56, H 1.65
S24: H 2.29, N 1.52, P 1.82, I 2.42, K 1.44, A 1.63
I20: E 4.11, Q 2.09
E7: L 2.97, C 2.53, V 3.16, T 3.56, N 1.84
V23: P 1.26, M 2.03, F 1.69, L 2
L1: C 1.84, T 1.63
L2: F 1.67, I 1.65, N 2.18, P 3.13, S 2.34, H 2.13, A 2.12, K 1.25, D 2.55
D17: P 1.86, R 2.14
T21: K 1.48
L8: T 2.74, D 2.48, S 1.75, V 1.69, E 2.24
I12: E 2.38, V 1.65, A 1.88, C 1.42
Y19: E 1.39, D 2.12, M 2.21, W 2.07, Q 2.13
L5: Y 1.77
Q11: N 1.68, W 1.08, Y 1.88, M 1.08
Q10: S 1.18, P 1.4, E 1.51, V 2.31
E15: N 1, D 2.08
R4: W 2.67
E9: H 1.45, D 3.17, N 1.94, T 3.38, C 2.11, R 2.22
W13: H 1.37, E 2.03, S 1.68
K22: P 1.23, Y 1.9, F 1.72, I 1.78

Variants of: B2
Test: as above
Settings: c terminus: a fixed tail appended

Protein stability index of substitutions, site by site:
T11: W 2.66, P 2.19, H 1.71, E 2.39, G 2.09, C 1.73, S 1.58, N 2.67, L 1.89, R 2.82, I 2.59, M 1.73, Q 1.72, Y 3.04, D 2.17, V 1.44, K 2.19, F 2.55
D23: E 1.85, A 1.79, Y 1.91, K 1.02, M 1.57, H 2.98, L 2.51, S 1.76, V 1.65, I 1.76, C 1.71, P 1.43, T 2.32, F 1.58, R 1.45, Q 2.44, N 3, G 1.82
E18: D 1.45, F 1.81, I 1.89, P 1.92, G 2.82, M 1.51, S 2.72, Y 2.71, W 2.2, H 1.43, A 3.12, N 2.38, Q 1.05, K 1.73
S12: D 2.79, A 2.15, V 1.6, L 1.97, K 1.95, Y 1.68, I 2.33, T 1.76, N 1.95, R 2.79, M 3.54, W 1.98, G 1.6, C 1.96, P 1.81, Q 1.66, F 1.34, H 1.67
R14: K 1.69, A 2.37, E 3.04, N 1.91, I 2.17, S 2.07, V 2.06, W 1.66, T 2.27, F 1.81, P 2.32, M 1.66, H 1.71, Y 1.95, C 1.79, Q 2.36, D 2.66, L 2.45, G 2.48
V19: T 1.41, S 1.93, R 2.4, K 2.98, D 3.18, C 2.18, I 2.19, Y 2.64, M 2.63, G 2.6, N 2.54, Q 2.86, L 2.35, P 2.13, E 2.59, H 2.85, F 2.21, W 2.21, A 1.96
V21: R 2.05, D 2.2, I 2.24, M 1.9, G 1.84, S 1.88, W 1.92, Y 2.14, H 1.86, K 2.15, P 1.43, N 2.03, E 1.77, A 2.51, F 1.95, T 1.6, L 1.57, Q 1.87
H15: E 3.05, G 1.98, W 2.1, S 2.16, A 2.61, V 2.27, Y 2.58, K 2.06, I 1.22, R 1.97, C 2.2, F 1.9, P 2.16, D 2.93, L 1.56, Q 2.6, M 1.32, T 2.17, N 2.76
W17: Y 2.24, Q 3.68, D 3.88, A 3.49, R 2.88, S 3.62, M 3.21, K 2.76, H 3.07, G 3.44, P 3.54, F 2.41, V 2.44, L 2.97, C 3.22, E 3.84, N 3.77, I 2.95, T 3.6
K24: N 2.1, E 2.66, S 1.87, T 2.36, C 2.21, F 2.23, L 2.05, H 1.57, R 1.75, V 1.96, Y 2.5, Q 1.7, W 1.96, G 1.92, I 2.65, A 1.28, P 2.16, M 1.95, D 1.07
E20: Q 1.51, I 1.96, H 1.58, M 1.59, G 3.06, F 1.93, D 1.98, Y 1.96, W 2.16, L 2.32, K 2.4, N 2.06, C 2.73, V 2.31, P 1.57, R 3.35, T 2, A 2.14
G13: Y 1.2, C 1.91, H 1.46, N 1.57, T 1.72, A 1.48, M 1.59, S 2.03, R 2.09, E 1.87, D 2.24, V 2.15, W 1.47, I 1.73, F 1.56, L 1.95, Q 1.71, K 2.39, P 1.74
G22: T 1.76, E 1.88, A 2.05, S 2.19, C 1.66, N 1.91, R 1.75, I 1.67, L 1.81, D 1.92, Q 2.38, P 1.85, W 2.37, M 1.58, F 1.53, K 2.5, Y 1.98, V 1.82, H 1.95
Y16: C 1.5, F 1.2, Q 2.16, P 1.78, H 2.04, A 2.38, D 3.52, I 2.33, K 2.38, G 2.98, T 1.35, W 4.12, S 1.75, E 2.6, R 2.02, M 2.45, V 2.08, N 2.56, L 1.76

From the supplement of paper PMC10567573
